Test results from patent US20240050597A1, “RADIOLABELLED ALPHA-V BETA-3 AND/OR ALPHA-V BETA-5 INTEGRINS ANTAGONIST FOR USE AS THERAGNOSTIC AGENT” (ADVANCED ACCELERATOR APPLICATIONS INTERNATIONAL SA, priority 2020, published 2024).

Assays:
[1] = Preliminary tests of FF58 resistance to radiation stress; assay type: physicochemical
Protocol: Additional tests were performed in order to evaluate the radiolysis also in more stressful conditions such as 40° C. storage temperature and rolling, decreasing antioxidant agent (sodium ascorbate and gentisic acid) amounts. The radiochemical purity (RCP) was monitored at release time and at expiration time by Radio-RP-HPLC.

αvβ3 = αvβ3 (Homo sapiens, UniProt P05106+P06756); experiment: Affinity for αvβ3 (preclinical data, summary statement); assay type: binding
Chain of αvβ3 (P06756 31-889 limits assumed): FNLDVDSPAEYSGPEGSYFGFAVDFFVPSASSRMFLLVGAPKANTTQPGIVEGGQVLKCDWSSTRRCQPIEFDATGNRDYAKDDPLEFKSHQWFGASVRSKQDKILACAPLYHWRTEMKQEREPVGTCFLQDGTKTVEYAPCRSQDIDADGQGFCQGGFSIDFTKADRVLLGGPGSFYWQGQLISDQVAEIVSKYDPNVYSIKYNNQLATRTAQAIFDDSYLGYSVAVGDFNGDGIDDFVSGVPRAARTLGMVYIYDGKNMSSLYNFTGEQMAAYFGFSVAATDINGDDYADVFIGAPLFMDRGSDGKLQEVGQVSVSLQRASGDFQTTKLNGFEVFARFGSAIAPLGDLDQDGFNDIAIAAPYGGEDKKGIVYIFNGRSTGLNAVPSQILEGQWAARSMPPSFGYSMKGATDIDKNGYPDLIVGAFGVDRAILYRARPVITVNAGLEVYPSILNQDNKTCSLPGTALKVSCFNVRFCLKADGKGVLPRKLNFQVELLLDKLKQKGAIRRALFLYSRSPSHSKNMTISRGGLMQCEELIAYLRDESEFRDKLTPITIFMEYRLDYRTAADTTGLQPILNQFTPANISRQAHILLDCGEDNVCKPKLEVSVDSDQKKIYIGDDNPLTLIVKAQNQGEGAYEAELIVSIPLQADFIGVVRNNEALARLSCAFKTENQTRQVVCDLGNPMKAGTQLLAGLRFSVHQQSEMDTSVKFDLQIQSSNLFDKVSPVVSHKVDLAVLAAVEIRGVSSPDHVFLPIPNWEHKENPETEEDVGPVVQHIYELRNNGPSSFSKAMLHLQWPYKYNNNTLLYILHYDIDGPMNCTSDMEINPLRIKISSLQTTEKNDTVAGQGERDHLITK
Chain of αvβ3 (P06756 891-1048 partner limits assumed): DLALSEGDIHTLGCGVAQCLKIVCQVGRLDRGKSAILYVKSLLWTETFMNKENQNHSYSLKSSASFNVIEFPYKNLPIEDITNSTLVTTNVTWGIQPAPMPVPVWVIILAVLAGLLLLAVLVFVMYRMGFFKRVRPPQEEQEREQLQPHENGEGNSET
Chain of αvβ3 (P05106 27-788): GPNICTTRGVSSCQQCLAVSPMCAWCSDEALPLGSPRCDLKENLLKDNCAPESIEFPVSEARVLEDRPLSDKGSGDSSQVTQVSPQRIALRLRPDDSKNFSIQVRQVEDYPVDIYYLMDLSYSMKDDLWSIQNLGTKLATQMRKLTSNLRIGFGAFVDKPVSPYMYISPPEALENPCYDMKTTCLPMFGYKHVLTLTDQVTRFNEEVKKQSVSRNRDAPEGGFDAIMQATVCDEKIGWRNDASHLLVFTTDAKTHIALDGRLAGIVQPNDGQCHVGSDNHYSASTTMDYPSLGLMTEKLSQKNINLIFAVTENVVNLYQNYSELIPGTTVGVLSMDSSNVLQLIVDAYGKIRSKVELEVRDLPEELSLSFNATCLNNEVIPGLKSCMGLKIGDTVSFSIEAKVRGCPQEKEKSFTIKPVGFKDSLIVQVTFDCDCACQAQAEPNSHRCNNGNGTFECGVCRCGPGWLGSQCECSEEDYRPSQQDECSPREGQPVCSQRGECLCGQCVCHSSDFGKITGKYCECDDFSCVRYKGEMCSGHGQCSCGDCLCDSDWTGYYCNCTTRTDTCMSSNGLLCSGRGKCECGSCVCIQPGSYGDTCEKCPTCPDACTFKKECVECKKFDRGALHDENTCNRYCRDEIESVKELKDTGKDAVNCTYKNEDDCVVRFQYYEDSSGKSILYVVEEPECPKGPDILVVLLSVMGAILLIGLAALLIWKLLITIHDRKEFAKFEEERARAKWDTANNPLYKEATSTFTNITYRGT

other receptors = experiment: Affinity for other receptors (preclinical data, summary statement); assay type: binding
αvβ5 = αvβ5 (Homo sapiens, UniProt P06756+P18084); experiment: Affinity for αvβ5 (preclinical data, summary statement); assay type: binding
Chain of αvβ5 (P06756 31-889 limits assumed): as the sequence (P06756 31-889 limits assumed) above
Chain of αvβ5 (P06756 891-1048 partner limits assumed): as the sequence (P06756 891-1048 partner limits assumed) above
Chain of αvβ5 (P18084 24-799): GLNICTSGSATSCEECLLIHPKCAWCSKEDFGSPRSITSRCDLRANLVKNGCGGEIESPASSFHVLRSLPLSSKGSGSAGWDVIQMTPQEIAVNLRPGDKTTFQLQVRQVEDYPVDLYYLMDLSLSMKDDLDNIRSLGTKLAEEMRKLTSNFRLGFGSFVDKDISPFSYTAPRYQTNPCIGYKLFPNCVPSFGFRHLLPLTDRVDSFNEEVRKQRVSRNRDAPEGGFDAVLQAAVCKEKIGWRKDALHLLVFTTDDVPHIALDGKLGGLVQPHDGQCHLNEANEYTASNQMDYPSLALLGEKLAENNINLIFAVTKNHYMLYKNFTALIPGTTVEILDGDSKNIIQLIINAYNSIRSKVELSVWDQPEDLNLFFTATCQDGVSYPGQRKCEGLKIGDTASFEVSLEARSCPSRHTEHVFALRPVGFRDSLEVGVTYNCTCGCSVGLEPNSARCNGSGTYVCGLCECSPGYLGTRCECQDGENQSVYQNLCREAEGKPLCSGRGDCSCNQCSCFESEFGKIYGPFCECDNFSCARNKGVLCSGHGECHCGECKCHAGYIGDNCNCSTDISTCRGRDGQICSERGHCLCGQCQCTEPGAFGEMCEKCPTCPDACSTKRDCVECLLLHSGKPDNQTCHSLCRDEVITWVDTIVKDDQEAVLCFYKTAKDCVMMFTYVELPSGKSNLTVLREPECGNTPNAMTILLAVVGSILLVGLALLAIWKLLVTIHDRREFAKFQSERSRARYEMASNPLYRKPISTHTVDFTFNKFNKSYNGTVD

WM266 melanoma tumor = test system: WM266 melanoma tumor; set-up: species or system mice; settings: mouse, in vivo
Protocol: Nude, male and female athymic mice bearing the WM266 melanoma tumor were intravenously injected with ^68Ga-Compound (˜100-150/uCi 320-480 pmol for males, ˜100-150 uCi/127-191 pmol for females, corresponding to 3.7-5.55 MBq). Animals were sacrificed in groups of four at 30 min, 1 h, 2 h and 4 h post injection. Tumor and organs of interest were collected, weighed and measured for radioactivity with a gamma-counter. The intestines and stomach were not emptied of their contents. Data were calculated as a percentage of the injected dose per gram of tissue (% ID/g).

SMILES	resistance to the radiation stress [1]	affinity for αvβ3 (αvβ3)	affinity for other receptors (other receptors)	affinity for αvβ5 (αvβ5)	background uptake in normal organs (WM266 melanoma tumor)	excretion (uptake in the kidneys and intestine) (WM266 melanoma tumor)
Cc1cc(OCCCC(=O)NCCNC(=O)[C@H](CS(=O)(=O)O)NC(=O)CN2CCN(CC(=O)O)CCN(CC(=O)O)CCN(CC(=O)O)CC2)cc(C)c1S(=O)(=O)NC(CNC(=O)CCCCc1ccc2c(n1)NCCC2)C(=O)O (stereo partly drawn) [FF58]	good resistance to the radiation stress	–	–	–	–	–
Cc1cc(OCCCC(=O)NCCNC(=O)[C@H](CS(=O)(=O)O)NC(=O)CN2CCN(CC(=O)O)CCN(CC(=O)O)CCN(CC(=O)O)CC2)cc(C)c1S(=O)(=O)NC(CNC(=O)CCCCc1ccc2c(n1)NCCC2)C(=O)O (single isomer, unassigned) [^68Ga-Compound, metal not drawn]	–	high affinity	absence of affinity	high affinity	cleared moderately by 4 h	renal and partial hepatic excretion
